From publication PMC8991256

Target: LH1–RC core complex, monomeric component of the native dimer (Rhodobacter sphaeroides f. sp. denitrificans strain IL106 (endogenous)) (UniProt Q3J1A4)
Assay: cryo-EM structure; native dimeric LH1–RC from Rba. sphaeroides IL106 in DDM, ~5 mg/ml; C1 symmetry, 2.75 Å

Substance: LH1–RC core complex, monomeric component of the native dimer (from UniProt Q3J1A4 1-58; Q3J1A3 1-49; P0C0Y8 1-282; P0C0Y9 1-308; P0C0Y7 1-260; P13402 1-82)
- stoichiometry N: 2
